Our source for the percent of input pelleted with F-actin values is article PMC10182306.

This assay addresses human platelet actin (human) (UniProt P60709). Put plainly: co-sedimentation.

On to “α-actinin (from UniProt P12814 1-892) (natural protein)”, for which the percent of input pelleted with F-actin is 77%.
